# B1: Puc peptide (residues 91-106), unlabeled (peptide)
# peptide: ENLACDEVTSTTSSST
# notes: puckered protein (Puc), residues 91-106; also called dark Puc peptide; unlabeled Puc peptide; source: synthetic peptide (Tufts University Core Facility, HPLC purified)
# B2: Pdx1-C (C-terminal intrinsically disordered region of human Pdx1) (domain or fragment)
# chain: GPGWEDKKRGGGTAVGGGGVAEPEQDCAVTSGEELLALPPPPPPGGAVPPAAPVAAREGRLPPGLSASPQPSSVAPRRPQEPR
# notes: N-terminal Gly-Pro-Gly cloning artefact left after 3C protease; pancreatic and duodenal homeobox 1 (Pdx1), human, amino acids 205-283 by the methods; the exogenous tryptophan may be what is counted as residue 204 (surmise); also called 13C,15N-Pdx1-C; source: E. coli BL-21(DE3), purified (Ni-NTA, 3C protease, second Ni-NTA, heat, anion exchange flow-through); not shown: GST, N-terminal, cleaved; …
# B3: Pdx1-C (C-terminal intrinsically disordered region of human Pdx1) (domain or fragment)
# chain: GPGWEDKKRGGGTAVGGGGVAEPEQDCAVTSGEELLALPPPPPPGGAVPPAAPVAAREGRLPPGLSASPQPSSVAPRRPQEPR
# notes: N-terminal Gly–Pro–Gly cloning artifact left after 3C protease; pancreatic and duodenal homeobox 1 (Pdx1), human, amino acids 205-283 (methods); The results' 204–283 may count the added tryptophan as position 204; 13C,15N enriched for NMR; also called ^13C, ^15N-Pdx1-C; Pdx1 C terminus; source: E. coli BL-21(DE3), purified (Ni-NTA, 3C protease, second Ni-NTA, heat, anion exchange flow-through); …
# B4: Pdx1-C: recombinant human Pdx1 C-terminal intrinsically disordered region (residues 204–283) (protein)
# chain: GPGWEDKKRGGGTAVGGGGVAEPEQDCAVTSGEELLALPPPPPPGGAVPPAAPVAAREGRLPPGLSASPQPSSVAPRRPQEPR
# modifications: left off: GST, N-terminal, cleaved | His6, N-terminal, cleaved
# B5: Pdx1–SBM1f peptide (Pdx1 residues 224–234) (peptide)
# peptide: EQDCAVTSGEE
# notes: human Pdx1 residues 224-234, shorter SBM1 peptide used for fluorescence anisotropy; source: synthetic peptide (Tufts University Core Facility, HPLC purified)
# Key:
# [1] = target: T1, SPOP-MATH (human SPOP residues 28-166) (human, UniProt O43791 28-166); experiment: fluorescence polarisation; competition fluorescence anisotropy: competitor (~0.01 μM to ~2 mM) displaces 40 nM f-Puc from 6 μM SPOP-MATH or SPOP28-359; complete competitive binding fit; 50 mM sodium phosphate pH 6.5, 50 mM NaCl, 5 mM DTT, 1% BSA, 0.01% Triton X-100; conditions: both partners purified
# T1 construct: N-terminal Gly-Pro-Gly cloning artefact left after 3C protease; speckle-type POZ protein (SPOP), human, MATH domain, residues 28-166; uniformly 15N-labelled for the NMR experiments; also called 15N-SPOP-MATH; source: E. coli BL-21(DE3), purified (Ni-NTA, 3C protease, second Ni-NTA, Sephacryl S100); not shown: GST, N-terminal, cleaved; His6, N-terminal, cleaved
# T1 sequence (O43791 other isoform, or with tags, fused parts or gaps): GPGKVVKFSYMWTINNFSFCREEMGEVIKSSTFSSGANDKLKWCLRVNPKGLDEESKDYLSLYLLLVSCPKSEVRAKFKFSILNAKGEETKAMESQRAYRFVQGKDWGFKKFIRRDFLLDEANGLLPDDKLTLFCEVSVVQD
# [2] = target: T2, SPOP28-359 (human SPOP residues 28-359) (human, UniProt O43791 28-359); experiment: as above; conditions: both partners purified
# T2 construct: also called oligomeric SPOP; source: E. coli Rosetta BL-21(DE3), purified (Ni-NTA, TEV protease, second Ni-NTA, Superdex 200); not shown: His, N-terminal, cleaved; SUMO, N-terminal, cleaved
# T2 sequence (O43791 28-359): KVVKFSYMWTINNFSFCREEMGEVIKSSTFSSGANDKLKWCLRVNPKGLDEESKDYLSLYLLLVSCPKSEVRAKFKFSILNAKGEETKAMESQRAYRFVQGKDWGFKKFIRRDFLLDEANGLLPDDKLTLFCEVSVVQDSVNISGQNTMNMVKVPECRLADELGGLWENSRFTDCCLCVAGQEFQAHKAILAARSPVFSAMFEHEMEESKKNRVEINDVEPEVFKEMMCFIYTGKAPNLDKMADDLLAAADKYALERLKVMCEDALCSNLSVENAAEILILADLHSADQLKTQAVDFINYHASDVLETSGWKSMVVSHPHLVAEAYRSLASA
# [3] = target: T3, SPOP_(28–359) (human SPOP residues 28–359) (human, UniProt O43791 28-359); experiment: fluorescence polarisation; competition fluorescence anisotropy: competitor against 40 nM f-Puc and 6 μM SPOP_(28–359); 50 mM sodium phosphate pH 6.5, 50 mM NaCl, 5 mM DTT, 1% BSA, 0.01% Triton X-100; complete competitive binding fit; conditions: both partners purified
# T3 construct: also called His–SUMO–SPOP (before cleavage); source: E. coli Rosetta BL-21(DE3), purified (Ni-NTA, TEV protease, second Ni-NTA, Superdex 200); not shown: His, N-terminal, cleaved; SUMO, N-terminal, cleaved
# T3 sequence (O43791 28-359): as above
# [4] = target: T4, SPOP–MATH (residues 28–166) (Homo sapiens, UniProt O43791); experiment: Competition fluorescence anisotropy, displacement of f-Puc from SPOP–MATH; format: binding; conditions: competition FA; Fig. 5 and Table S4
# T4 construct: glutathione S-transferase (GST) (N, cleaved yes); 6X His (N, cleaved yes); made in house; host or cells: E. coli BL-21(DE3)
# T4 sequence (O43791 28-166): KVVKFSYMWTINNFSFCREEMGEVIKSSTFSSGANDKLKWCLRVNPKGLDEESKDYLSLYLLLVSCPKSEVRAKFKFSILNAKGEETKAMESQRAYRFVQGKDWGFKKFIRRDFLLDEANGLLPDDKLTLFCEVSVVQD
# Text: An Escherichia coli codon-optimized DNA sequence encoding amino acids 205 to 283 of the human Pdx1 sequence (Pdx1-C) in the multiple cloning site of pET49b(+) was purchased from GeneArt (Thermo Fisher). The pET49b(+) backbone encodes for N-terminal glutathione S-transferase and 6X His tags, followed by a 3C protease recognition motif. In all experiments described herein, a mutant containing an exogenous tryptophan at the N terminus of the human Pdx1-C sequence was used for the purposes of quantitation. Mutations in Pdx1-C were generated by Q5 site-directed mutagenesis (New England Biolabs) with primers designed on NEBbasechanger.com according to the manufacturer protocol. Similarly, an E. coli–optimized DNA sequence encoding residues 28 to 166 of human SPOP (SPOP–MATH) was purchased in pET49b(+) from GeneArt. […] A plasmid encoding His–SUMO–SPOP human residues 28 to 359 harboring a tobacco etch virus protease recognition site directly N terminal to the beginning of the native SPOP protein sequence was generated previously ([21]).
# All FA experiments were conducted in 50 mM sodium phosphate, pH 6.5, 50 mM sodium chloride, 5 mM DTT, 1% BSA, and 0.01% Triton X-100. In all experiments, the source of fluorescence signal was f-Puc purchased from GenScript, at a final concentration of 40 nM. For direct FA measurements, SPOP–MATH or SPOP28–359 of concentrations between 0.001 and 300 μM was added to wells of 96- or 384-well plates containing f-Puc and buffer. For competition-mode experiments, serial dilutions of each competitor (Pdx1 peptide or recombinant protein) were prepared ranging from ∼0.01 μM to ∼2 mM (concentration range varied based on peptide solubility) in wells of 96- or 384-well plates containing 40 nM f-Puc and 6 μM SPOP–MATH or SPOP28–359. The fluorescence polarization of each well was measured (from which FA was calculated) using either a TECAN Infinite M1000 Pro or BioTek Synergy 4 fluorometer. All experiments were performed with at least three technical replicates. FA data points were fit to a complete competitive binding model ([23]) to determine dissociation constants using in-house Python scripts (see Quantification and statistical analysis).
# All titrations were performed in triplicate for rigor. Direct FA titrations were performed to determine the dissociation constants of the fluorescent probe toward SPOP constructs. Direct titration data were fit according to equation 6 in ([54]). Competition mode titration data were fit according to the fitting function in ([23]). Average dissociation constants and standard error from the mean for all constructs from competition experiments may be found in Table S4. The python scripts used in plotting and fitting may be found at https://github.com/idpemery/spop-pdx1.
# [5] = target: T4, SPOP–MATH (residues 28–166); experiment: (HACA)CON NMR of 13C,15N–Pdx1-C with SPOP–MATH; format: binding; conditions: 13C direct-detect (HACA)CON, 500 MHz, 25 °C, pH 6.5
# Experimental: NMR data collection and analysis
# NMR data were collected on Bruker Avance III 500, 600, or 850 MHz spectrometers equipped with TCI triple-resonance cryoprobes. All data collection and initial processing were carried out in TopSpin (Bruker). NMR experiments on all proteins were collected in 50 mM sodium phosphate, pH 6.5, 50 mM sodium chloride, 5 mM DTT, 0.01% sodium azide, and 5% D2O unless otherwise noted.
# Addition of SPOP–MATH into ^13C, ^15N–Pdx1-C was monitored by ^13C direct-detect (HACA)CON experiments ([44]) consisting of 16 scans and 1024 × 128 complex data points. SPOP–MATH was added to ^13C, ^15N–Pdx1-C such that the final concentrations were 0.35 mM and 0.37 mM, respectively. Peaks from each spectrum were integrated and used to calculate a percent intensity change in Pdx1-C resonances after binding of SPOP–MATH. SPOP28–359 was added to ^13C, ^15N–Pdx1-C at a 4-fold molar excess and detected by HSQC or (HACA)CON. Line broadening precluded residue-specific analysis of SPOP28–359 and Pdx1-C.
# [6] = target: T5, SPOP–MATH (human SPOP residues 28–166) (human, UniProt O43791 28-166); experiment: fluorescence polarisation; competition fluorescence anisotropy: competitor ~0.01 μM to ~2 mM against 40 nM f-Puc and 6 μM SPOP–MATH; 50 mM sodium phosphate pH 6.5, 50 mM NaCl, 5 mM DTT, 1% BSA, 0.01% Triton X-100; complete competitive binding fit; conditions: both partners purified
# T5 construct: N-terminal Gly–Pro–Gly cloning artifact left after 3C protease; speckle-type POZ protein (SPOP), human, MATH domain, residues 28-166; Uniformly 15N (or 13C,15N) enriched for the NMR experiments in which it is the observed protein; also called monomeric SPOP–MATH; ^15N–SPOP–MATH; source: E. coli BL-21(DE3), purified (Ni-NTA, 3C protease, second Ni-NTA, Sephacryl S100 gel filtration); not shown: …
# T5 sequence (O43791 other isoform, or with tags, fused parts or gaps): as the sequence (O43791 other isoform, or with tags, fused parts or gaps) above
molecule,measurement,setting,value
B1,Kd,[1],2.6 µM
same,Kd,[2],2.6 µM
B2,Kd,[1],32 µM
same,Kd,[2],3.5 µM
B3,fold enhancement in binding affinity compared with SPOP–MATH,[3],~10 fold
B4,"apparent affinity for SPOP–MATH, in words",[4],higher apparent affinity for SPOP–MATH than the strongest individual SB motif alone
same,resonance intensity loss in Pdx1-C on addition of SPOP-MATH,[5],marked resonance intensity loss in two specific locations: amino acids 220 to 235 (highlighted in teal) and amino acids 265 to 275
B5,Kd,[6],140 µM
